# According to doi:10.1101/2021.07.23.453469 (bioRxiv, 2021):
# T1: outer-capsid protein σ3 on T3SA- virions (reovirus strain T1L, UniProt P07939 1-365)
# T1 sequence (looked up): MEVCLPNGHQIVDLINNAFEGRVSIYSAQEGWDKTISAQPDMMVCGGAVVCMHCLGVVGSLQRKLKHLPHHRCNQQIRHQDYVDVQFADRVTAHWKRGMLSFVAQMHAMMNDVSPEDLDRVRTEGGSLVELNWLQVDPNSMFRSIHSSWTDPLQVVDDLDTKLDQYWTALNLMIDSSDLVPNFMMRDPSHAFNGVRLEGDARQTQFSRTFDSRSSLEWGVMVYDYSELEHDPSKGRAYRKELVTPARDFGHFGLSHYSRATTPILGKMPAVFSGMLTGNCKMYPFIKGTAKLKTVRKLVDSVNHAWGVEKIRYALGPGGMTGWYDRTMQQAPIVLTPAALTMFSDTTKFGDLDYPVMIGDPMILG
# Biological target: T1, outer-capsid protein σ3 on T3SA- virions
# Assay: cryo-EM structure
binder,measurement,value
"NgR1-His (domain or fragment, human, UniProt Q9BZR6 27-310, looked up) CPGACVCYNEPKVTTSCPQQGLQAVPVGIPAASQRIFLHGNRISHVPAASFRACRNLTILWLHSNVLARIDAAAFTGLALLEQLDLSDNAQLRSVDPATFHGLGRLHTLHLDRCGLQELGPGLFRGLAALQYLYLQDNALQALPDDTFRDLGNLTHLFLHGNRISSVPERAFRGLHSLDRLLLHQNRVAHVHPHAFRDLGRLMTLYLFANNLSALPTEALAPLRALQYLRLNDNPWVCDCRARPLWAWLQKFRGSSSEVPCSLPQRLAGRDLKRLAANDLQGCA",binding result,binds
